The values below come from patent US20220372155A1 (LYVGEN BIOPHARMA, published 2022).

The target in the experiment is T1, human CD40 expressed on CHO cells (human, UniProt P25942 21-277).
T1 construct: whole, on cells; also used for the reporter cells over-expressing human CD40; also called cellular CD40; CHO-CD40 cells
The experiment can be described thus: FACS, CHO cells.

T1 sequence (P25942 21-277): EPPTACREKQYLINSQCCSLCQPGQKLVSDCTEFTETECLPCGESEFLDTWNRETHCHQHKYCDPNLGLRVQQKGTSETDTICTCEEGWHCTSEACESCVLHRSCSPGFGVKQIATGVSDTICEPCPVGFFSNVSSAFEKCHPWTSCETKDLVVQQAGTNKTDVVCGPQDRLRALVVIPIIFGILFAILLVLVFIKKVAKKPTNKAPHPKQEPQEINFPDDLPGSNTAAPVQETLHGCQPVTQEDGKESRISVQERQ

B1: Ly401 (bispecific antibody, human IgG1, kappa)
heavy: EVQLVESGGGVVQPGRSLRLSCSASGFDFTTYWMSWVRQAPGKGLEWIGEIHPDSSTINYAPSLKDRFTISRDNAKNTLFLQMDSLRPEDTGVYFCASLYFGFPWFAYWGQGTPVTVSSASTKGPSVFPLAPSSKSTSGGTAALGCLVKDYFPEPVTVSWNSGALTSGVHTFPAVLQSSGLYSLSSVVTVPSSSLGTQTYICNVNHKPSNTKVDKKVEPKSCDKTHTCPPCPAPELLGPSVFLFPPKPKDTLMISRTPEVTCVVVDVSHEDPEVKFNWYVDGVEVHNAKTKPREEQYNSTYRVVSVLTVLHQDWLNGKEYKCKVSNKALPAPIEKTISKAKGQPREPQVYTLPPSREEMTKNQVSLTCLVKGFYPSDIAVEWESNGQPENNYKTTPPVLDSDGSFFLYSKLTVDKSRWQQGNVFSCSVMHEALHNHYTQKSLSLSPGGGGGSGGGGSGGGGSGGGGSDIQMTQSPSSLSASVGDRVTITCKASQNIYIYLNWYQQKPGKAPKLLIYNTNNLQTGVPSRFSGSGSGTDFTLTISSLQPEDFATYYCLQHSSRRTFGGGTKVEIKGGGGSGGGGSGGGGSGGGGSQVQLVESGGGLVQPGGSLKLSCATSGFNFNDYFMNWVRQASGKGLEWVGQIRNKNYNYATYYTESLEGRVTISRDDSKNTAYLQMNSLKTEDTAVYYCTSYYYDGFADYFDYWGQGTTVTVSS
light: DIQLTQSPSSLSASVGDRVTITCKASQDVGTSVAWYQQKPGKAPKLLIYWTSTRHTGVPSRFSGSGSGTDFTFTISSLQPEDIATYYCQQYSLYRSFGQGTKVEIKRTVAAPSVFIFPPSDEQLKSGTASVVCLLNNFYPREAKVQWKVDNALQSGNSQESVTEQDSKDSTYSLSSTLTLSKADYEKHKVYACEVTHQGLSSPVTKSFNRGEC
notes: Ly311 HC (IgG1 mutated Fc)-TM740 scFv VL-VH + Ly311 LC
Take B1: the binding result is “binds”.

B2: Ly402 (bispecific antibody, human IgG1, kappa)
heavy: EVQLVESGGGVVQPGRSLRLSCSASGFDFTTYWMSWVRQAPGKGLEWIGEIHPDSSTINYAPSLKDRFTISRDNAKNTLFLQMDSLRPEDTGVYFCASLYFGFPWFAYWGQGTPVTVSSASTKGPSVFPLAPSSKSTSGGTAALGCLVKDYFPEPVTVSWNSGALTSGVHTFPAVLQSSGLYSLSSVVTVPSSSLGTQTYICNVNHKPSNTKVDKKVEPKSCDKTHTCPPCPAPELLGPSVFLFPPKPKDTLMISRTPEVTCVVVDVSHEDPEVKFNWYVDGVEVHNAKTKPREEQYNSTYRVVSVLTVLHQDWLNGKEYKCKVSNKALPAPIEKTISKAKGQPREPQVYTLPPSREEMTKNQVSLTCLVKGFYPSDIAVEWESNGQPENNYKTTPPVLDSDGSFFLYSKLTVDKSRWQQGNVFSCSVMHEALHNHYTQKSLSLSPGGGGGSGGGGSGGGGSGGGGSQVQLVESGGGLVQPGGSLKLSCATSGFNFNDYFMNWVRQASGKGLEWVGQIRNKNYNYATYYTESLEGRVTISRDDSKNTAYLQMNSLKTEDTAVYYCTSYYYDGFADYFDYWGQGTTVTVSSGGGGSGGGGSGGGGSGGGGSDIQMTQSPSSLSASVGDRVTITCKASQNIYIYLNWYQQKPGKAPKLLIYNTNNLQTGVPSRFSGSGSGTDFTLTISSLQPEDFATYYCLQHSSRRTFGGGTKVEIK
light: DIQLTQSPSSLSASVGDRVTITCKASQDVGTSVAWYQQKPGKAPKLLIYWTSTRHTGVPSRFSGSGSGTDFTFTISSLQPEDIATYYCQQYSLYRSFGQGTKVEIKRTVAAPSVFIFPPSDEQLKSGTASVVCLLNNFYPREAKVQWKVDNALQSGNSQESVTEQDSKDSTYSLSSTLTLSKADYEKHKVYACEVTHQGLSSPVTKSFNRGEC
notes: Ly311 HC (IgG1 mutated Fc)-TM740 scFv VH-VL + Ly311 LC
Take B2: the binding result is reported as “binds”.

B3: Ly403 (bispecific antibody, human IgG1, kappa)
heavy: EVQLVESGGGVVQPGRSLRLSCSASGFDFTTYWMSWVRQAPGKGLEWIGEIHPDSSTINYAPSLKDRFTISRDNAKNTLFLQMDSLRPEDTGVYFCASLYFGFPWFAYWGQGTPVTVSSASTKGPSVFPLAPSSKSTSGGTAALGCLVKDYFPEPVTVSWNSGALTSGVHTFPAVLQSSGLYSLSSVVTVPSSSLGTQTYICNVNHKPSNTKVDKKVEPKSCDKTHTCPPCPAPELLGPSVFLFPPKPKDTLMISRTPEVTCVVVDVSHEDPEVKFNWYVDGVEVHNAKTKPREEQYNSTYRVVSVLTVLHQDWLNGKEYKCKVSNKALPAPIEKTISKAKGQPREPQVYTLPPSREEMTKNQVSLTCLVKGFYPSDIAVEWESNGQPENNYKTTPPVLDSDGSFFLYSKLTVDKSRWQQGNVFSCSVMHEALHNHYTQKSLSLSPGK
light: DIQLTQSPSSLSASVGDRVTITCKASQDVGTSVAWYQQKPGKAPKLLIYWTSTRHTGVPSRFSGSGSGTDFTFTISSLQPEDIATYYCQQYSLYRSFGQGTKVEIKRTVAAPSVFIFPPSDEQLKSGTASVVCLLNNFYPREAKVQWKVDNALQSGNSQESVTEQDSKDSTYSLSSTLTLSKADYEKHKVYACEVTHQGLSSPVTKSFNRGECGGGGSGGGGSGGGGSGGGGSDIQMTQSPSSLSASVGDRVTITCKASQNIYIYLNWYQQKPGKAPKLLIYNTNNLQTGVPSRFSGSGSGTDFTLTISSLQPEDFATYYCLQHSSRRTFGGGTKVEIKGGGGSGGGGSGGGGSGGGGSQVQLVESGGGLVQPGGSLKLSCATSGFNFNDYFMNWVRQASGKGLEWVGQIRNKNYNYATYYTESLEGRVTISRDDSKNTAYLQMNSLKTEDTAVYYCTSYYYDGFADYFDYWGQGTTVTVSS
notes: Ly311 HC (IgG1 mutated Fc) + Ly311 LC-TM740 scFv VL-VH
Consider B3, for which the binding result is “binds”.

B4: Ly404 (bispecific antibody, human IgG1, kappa)
heavy: EVQLVESGGGVVQPGRSLRLSCSASGFDFTTYWMSWVRQAPGKGLEWIGEIHPDSSTINYAPSLKDRFTISRDNAKNTLFLQMDSLRPEDTGVYFCASLYFGFPWFAYWGQGTPVTVSSASTKGPSVFPLAPSSKSTSGGTAALGCLVKDYFPEPVTVSWNSGALTSGVHTFPAVLQSSGLYSLSSVVTVPSSSLGTQTYICNVNHKPSNTKVDKKVEPKSCDKTHTCPPCPAPELLGPSVFLFPPKPKDTLMISRTPEVTCVVVDVSHEDPEVKFNWYVDGVEVHNAKTKPREEQYNSTYRVVSVLTVLHQDWLNGKEYKCKVSNKALPAPIEKTISKAKGQPREPQVYTLPPSREEMTKNQVSLTCLVKGFYPSDIAVEWESNGQPENNYKTTPPVLDSDGSFFLYSKLTVDKSRWQQGNVFSCSVMHEALHNHYTQKSLSLSPGK
light: DIQLTQSPSSLSASVGDRVTITCKASQDVGTSVAWYQQKPGKAPKLLIYWTSTRHTGVPSRFSGSGSGTDFTFTISSLQPEDIATYYCQQYSLYRSFGQGTKVEIKRTVAAPSVFIFPPSDEQLKSGTASVVCLLNNFYPREAKVQWKVDNALQSGNSQESVTEQDSKDSTYSLSSTLTLSKADYEKHKVYACEVTHQGLSSPVTKSFNRGECGGGGSGGGGSGGGGSGGGGSQVQLVESGGGLVQPGGSLKLSCATSGFNFNDYFMNWVRQASGKGLEWVGQIRNKNYNYATYYTESLEGRVTISRDDSKNTAYLQMNSLKTEDTAVYYCTSYYYDGFADYFDYWGQGTTVTVSSGGGGSGGGGSGGGGSGGGGSDIQMTQSPSSLSASVGDRVTITCKASQNIYIYLNWYQQKPGKAPKLLIYNTNNLQTGVPSRFSGSGSGTDFTLTISSLQPEDFATYYCLQHSSRRTFGGGTKVEIK
notes: Ly311 HC (IgG1 mutated Fc) + Ly311 LC-TM740 scFv VH-VL
Consider B4, for which the binding result is listed as “binds”.
